Literature values in article PMC4438997.

Target: Ezrin FERM (Homo sapiens) (UniProt P15311)
UniProt P15311, sequence (P15311 1-299): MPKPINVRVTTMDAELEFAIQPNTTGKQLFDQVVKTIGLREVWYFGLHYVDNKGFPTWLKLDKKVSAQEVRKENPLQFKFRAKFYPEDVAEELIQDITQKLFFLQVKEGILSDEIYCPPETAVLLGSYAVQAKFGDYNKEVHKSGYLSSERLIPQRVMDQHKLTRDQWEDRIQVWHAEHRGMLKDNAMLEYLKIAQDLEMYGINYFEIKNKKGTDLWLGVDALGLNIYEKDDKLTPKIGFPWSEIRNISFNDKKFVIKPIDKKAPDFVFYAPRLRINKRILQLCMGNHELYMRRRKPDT

Substance: NHERF1 C-terminal domain (from UniProt O14745)
- Kd: 19 nM
